Assay results as given in paper doi:10.1101/780452.

Biological target: BSA-Man (glycoprotein bearing 12 glycosylated sites) (bovine (from the name BSA)), P02769
Assay: SPR
Settings: remark: other sources report otherwise

BSA-Man (glycoprotein bearing 12 glycosylated sites) (bovine (from the name BSA)), P02769, sequence (P02769 25-607): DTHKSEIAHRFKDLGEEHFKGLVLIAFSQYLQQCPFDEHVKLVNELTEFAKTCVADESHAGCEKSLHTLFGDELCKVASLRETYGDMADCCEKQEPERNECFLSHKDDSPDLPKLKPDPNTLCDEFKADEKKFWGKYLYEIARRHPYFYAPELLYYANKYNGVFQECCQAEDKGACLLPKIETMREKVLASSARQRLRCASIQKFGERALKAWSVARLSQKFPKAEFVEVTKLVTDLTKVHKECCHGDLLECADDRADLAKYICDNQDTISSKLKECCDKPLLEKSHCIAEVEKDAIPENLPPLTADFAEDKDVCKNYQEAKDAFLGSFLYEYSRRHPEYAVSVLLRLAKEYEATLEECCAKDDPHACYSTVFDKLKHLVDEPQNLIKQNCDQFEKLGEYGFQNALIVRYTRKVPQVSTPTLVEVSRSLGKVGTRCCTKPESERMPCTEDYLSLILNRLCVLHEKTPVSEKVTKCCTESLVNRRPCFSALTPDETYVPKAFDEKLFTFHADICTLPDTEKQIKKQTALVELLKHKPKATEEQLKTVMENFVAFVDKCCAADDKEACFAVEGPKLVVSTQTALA

B1: DC-SIGN ECD (construct without StreptagII), Q9NNX6 59-404 (domain or fragment)
chain: QVSKVPSSISQEQSRQDAIYQNLTQLKAAVGELSEKSKLQEIYQELTQLKAAVGELPEKSKLQEIYQELTRLKAAVGELPEKSKLQEIYQELTWLKAAVGELPEKSKMQEIYQELTRLKAAVGELPEKSKQQEIYQELTRLKAAVGELPEKSKQQEIYQELTRLKAAVGELPEKSKQQEIYQELTQLKAAVERLCHPCPWEWTFFQGNCYFMSNSQRNWHDSITACKEVGAQLVVIKSAEEQNFLQLQSSRSNRFTWMGLSDLNQEGTWQWVDGSPLLPSFKQYWNRGEPNNVGEEDCAEFSGNGWNDDKCNLAKFWICKKSAASCSRDEEQFLSPAPATPNPPPA
modifications: here or on the partner: 12 glycosylated sites (mannose glycans, up to 12 glycans displayed)
How did the Kd turn out when B1 was run?
The Kd was 3.74 µM.
